Drawing on the Human Domainome abundance scans (Beltran et al. 2025), this text covers abundance fitness for 58 variants.

± gives the uncertainty stated by the source.

The labels stand for the following.
B1: Zinc finger homeobox protein 4, residues 2183 to 2238; numbered along this chain, Q86UP3 (parent)
chain: SSRTRFTDYQLRVLQDFFDTNAYPKDDEIEQLSTVLNLPTRVIVVWFQNARQKARK

The data set covers variants of B1. As to the kind of experiment: abundance fitness (aPCA) (normalised: wild type 0, dead -1); higher = more abundant; growth selection in yeast, the domain comes from the species named. The following applies: Homo sapiens.
For the variant GSRTRFTDYQLRVLQDFFDTNAYPKDDEIEQLSTVLNLPTRVIVVWFQNARQKARK [S1G], the abundance fitness amounted to 0.276 ± 0.15.

Turning to CSRTRFTDYQLRVLQDFFDTNAYPKDDEIEQLSTVLNLPTRVIVVWFQNARQKARK [S1C], the abundance fitness is 0.092 ± 0.18. Next, ASRTRFTDYQLRVLQDFFDTNAYPKDDEIEQLSTVLNLPTRVIVVWFQNARQKARK [S1A]: 0.062 ± 0.2; TSRTRFTDYQLRVLQDFFDTNAYPKDDEIEQLSTVLNLPTRVIVVWFQNARQKARK [S1T]: -0.009 ± 0.16. Next, FSRTRFTDYQLRVLQDFFDTNAYPKDDEIEQLSTVLNLPTRVIVVWFQNARQKARK [S1F]: 0.106 ± 0.2; MSRTRFTDYQLRVLQDFFDTNAYPKDDEIEQLSTVLNLPTRVIVVWFQNARQKARK [S1M]: 0.045 ± 0.28. As for PSRTRFTDYQLRVLQDFFDTNAYPKDDEIEQLSTVLNLPTRVIVVWFQNARQKARK [S1P], the figure is -0.575 ± 0.29; as for WSRTRFTDYQLRVLQDFFDTNAYPKDDEIEQLSTVLNLPTRVIVVWFQNARQKARK [S1W], -1.16 ± 0.35.

Consider YSRTRFTDYQLRVLQDFFDTNAYPKDDEIEQLSTVLNLPTRVIVVWFQNARQKARK [S1Y], for which the abundance fitness was -0.241 ± 0.17. For ISRTRFTDYQLRVLQDFFDTNAYPKDDEIEQLSTVLNLPTRVIVVWFQNARQKARK [S1I], the abundance fitness was -0.026 ± 0.34.

SSRTTFTDYQLRVLQDFFDTNAYPKDDEIEQLSTVLNLPTRVIVVWFQNARQKARK [R5T]: the abundance fitness was 0.22 ± 0.13. As for SSRTYFTDYQLRVLQDFFDTNAYPKDDEIEQLSTVLNLPTRVIVVWFQNARQKARK [R5Y], the abundance fitness stood at 0.213 ± 0.15. Next, SSRTPFTDYQLRVLQDFFDTNAYPKDDEIEQLSTVLNLPTRVIVVWFQNARQKARK [R5P]: 0.001 ± 0.12; SSRTVFTDYQLRVLQDFFDTNAYPKDDEIEQLSTVLNLPTRVIVVWFQNARQKARK [R5V]: 0.133 ± 0.13. As for SSRTMFTDYQLRVLQDFFDTNAYPKDDEIEQLSTVLNLPTRVIVVWFQNARQKARK [R5M], the figure is 0.309 ± 0.15; as for SSRTLFTDYQLRVLQDFFDTNAYPKDDEIEQLSTVLNLPTRVIVVWFQNARQKARK [R5L], 0.193 ± 0.1.

SSRTDFTDYQLRVLQDFFDTNAYPKDDEIEQLSTVLNLPTRVIVVWFQNARQKARK [R5D]: the abundance fitness worked out at 0.338 ± 0.29. As for SSRTGFTDYQLRVLQDFFDTNAYPKDDEIEQLSTVLNLPTRVIVVWFQNARQKARK [R5G], the figure is -0.109 ± 0.11. Next, SSRTEFTDYQLRVLQDFFDTNAYPKDDEIEQLSTVLNLPTRVIVVWFQNARQKARK [R5E]: 0.218 ± 0.22; SSRTNFTDYQLRVLQDFFDTNAYPKDDEIEQLSTVLNLPTRVIVVWFQNARQKARK [R5N]: 0.358 ± 0.14; SSRTHFTDYQLRVLQDFFDTNAYPKDDEIEQLSTVLNLPTRVIVVWFQNARQKARK [R5H]: 0.194 ± 0.15.

With SSRTQFTDYQLRVLQDFFDTNAYPKDDEIEQLSTVLNLPTRVIVVWFQNARQKARK [R5Q], the abundance fitness is -0.241 ± 0.24.

In the case of SSRTCFTDYQLRVLQDFFDTNAYPKDDEIEQLSTVLNLPTRVIVVWFQNARQKARK [R5C], the abundance fitness is 0.272 ± 0.11. Next, SSRTIFTDYQLRVLQDFFDTNAYPKDDEIEQLSTVLNLPTRVIVVWFQNARQKARK [R5I]: 0.238 ± 0.13; SSRTWFTDYQLRVLQDFFDTNAYPKDDEIEQLSTVLNLPTRVIVVWFQNARQKARK [R5W]: -0.11 ± 0.17; SSRTKFTDYQLRVLQDFFDTNAYPKDDEIEQLSTVLNLPTRVIVVWFQNARQKARK [R5K]: 0.195 ± 0.2. As for SSRTRATDYQLRVLQDFFDTNAYPKDDEIEQLSTVLNLPTRVIVVWFQNARQKARK [F6A], the figure is -0.654 ± 0.1; as for SSRTRETDYQLRVLQDFFDTNAYPKDDEIEQLSTVLNLPTRVIVVWFQNARQKARK [F6E], -0.344 ± 0.17.

With SSRTRCTDYQLRVLQDFFDTNAYPKDDEIEQLSTVLNLPTRVIVVWFQNARQKARK [F6C], the abundance fitness was -0.094 ± 0.095. Turning to SSRTRDTDYQLRVLQDFFDTNAYPKDDEIEQLSTVLNLPTRVIVVWFQNARQKARK [F6D], the abundance fitness is -0.09 ± 0.12. As for SSRTRGTDYQLRVLQDFFDTNAYPKDDEIEQLSTVLNLPTRVIVVWFQNARQKARK [F6G], the figure is -0.335 ± 0.092; as for SSRNRFTDYQLRVLQDFFDTNAYPKDDEIEQLSTVLNLPTRVIVVWFQNARQKARK [T4N], 0.047 ± 0.14.

SSRRRFTDYQLRVLQDFFDTNAYPKDDEIEQLSTVLNLPTRVIVVWFQNARQKARK [T4R]: the abundance fitness was -0.533 ± 0.08.

Turning to SSRHRFTDYQLRVLQDFFDTNAYPKDDEIEQLSTVLNLPTRVIVVWFQNARQKARK [T4H], the abundance fitness was 0.096 ± 0.13.

With SSRCRFTDYQLRVLQDFFDTNAYPKDDEIEQLSTVLNLPTRVIVVWFQNARQKARK [T4C], the abundance fitness is -0.446 ± 0.13.

For SSRLRFTDYQLRVLQDFFDTNAYPKDDEIEQLSTVLNLPTRVIVVWFQNARQKARK [T4L], the abundance fitness worked out at 0.072 ± 0.083. In the case of SSRGRFTDYQLRVLQDFFDTNAYPKDDEIEQLSTVLNLPTRVIVVWFQNARQKARK [T4G], the abundance fitness was -0.328 ± 0.092. In the case of SSRARFTDYQLRVLQDFFDTNAYPKDDEIEQLSTVLNLPTRVIVVWFQNARQKARK [T4A], the abundance fitness is -0.698 ± 0.14. Next, SSRDRFTDYQLRVLQDFFDTNAYPKDDEIEQLSTVLNLPTRVIVVWFQNARQKARK [T4D]: 0.015 ± 0.16.

For SSRFRFTDYQLRVLQDFFDTNAYPKDDEIEQLSTVLNLPTRVIVVWFQNARQKARK [T4F], the abundance fitness was -0.182 ± 0.16. As for SSRERFTDYQLRVLQDFFDTNAYPKDDEIEQLSTVLNLPTRVIVVWFQNARQKARK [T4E], the figure is -0.368 ± 0.13; as for SSRQRFTDYQLRVLQDFFDTNAYPKDDEIEQLSTVLNLPTRVIVVWFQNARQKARK [T4Q], -0.269 ± 0.16. Next, SSRMRFTDYQLRVLQDFFDTNAYPKDDEIEQLSTVLNLPTRVIVVWFQNARQKARK [T4M]: 0.392 ± 0.11. Consider SSRKRFTDYQLRVLQDFFDTNAYPKDDEIEQLSTVLNLPTRVIVVWFQNARQKARK [T4K], for which the abundance fitness was -0.571 ± 0.15. As for SSRSRFTDYQLRVLQDFFDTNAYPKDDEIEQLSTVLNLPTRVIVVWFQNARQKARK [T4S], the figure is 0.019 ± 0.087; as for SSRVRFTDYQLRVLQDFFDTNAYPKDDEIEQLSTVLNLPTRVIVVWFQNARQKARK [T4V], -0.602 ± 0.11. Next, SSRYRFTDYQLRVLQDFFDTNAYPKDDEIEQLSTVLNLPTRVIVVWFQNARQKARK [T4Y]: 0.323 ± 0.16; SSRWRFTDYQLRVLQDFFDTNAYPKDDEIEQLSTVLNLPTRVIVVWFQNARQKARK [T4W]: -0.433 ± 0.12; SSRPRFTDYQLRVLQDFFDTNAYPKDDEIEQLSTVLNLPTRVIVVWFQNARQKARK [T4P]: -0.109 ± 0.11. As for SYRTRFTDYQLRVLQDFFDTNAYPKDDEIEQLSTVLNLPTRVIVVWFQNARQKARK [S2Y], the figure is -0.07 ± 0.14. SGRTRFTDYQLRVLQDFFDTNAYPKDDEIEQLSTVLNLPTRVIVVWFQNARQKARK [S2G]: the abundance fitness was -0.004 ± 0.077. Next, SNRTRFTDYQLRVLQDFFDTNAYPKDDEIEQLSTVLNLPTRVIVVWFQNARQKARK [S2N]: 0.125 ± 0.15; SMRTRFTDYQLRVLQDFFDTNAYPKDDEIEQLSTVLNLPTRVIVVWFQNARQKARK [S2M]: 0.102 ± 0.17; SPRTRFTDYQLRVLQDFFDTNAYPKDDEIEQLSTVLNLPTRVIVVWFQNARQKARK [S2P]: -0.012 ± 0.12. Next, SCRTRFTDYQLRVLQDFFDTNAYPKDDEIEQLSTVLNLPTRVIVVWFQNARQKARK [S2C]: 0.197 ± 0.096.

Regarding SHRTRFTDYQLRVLQDFFDTNAYPKDDEIEQLSTVLNLPTRVIVVWFQNARQKARK [S2H], the abundance fitness was -0.106 ± 0.16. Next, SFRTRFTDYQLRVLQDFFDTNAYPKDDEIEQLSTVLNLPTRVIVVWFQNARQKARK [S2F]: -0.229 ± 0.14; STRTRFTDYQLRVLQDFFDTNAYPKDDEIEQLSTVLNLPTRVIVVWFQNARQKARK [S2T]: 0.151 ± 0.13.
